Experimental data reported in the supplement of paper PMC9112550, “Optimization of the antimicrobial peptide Bac7 by deep mutational scanning” (BMC Biology, 2022).

test system: Escherichia coli TOP10; test: shrunken log2 fold change of peptide-encoding DNA abundance (4.5 h post-induction vs induction); higher = less antimicrobial activity (less host growth inhibition); details: time post-induction: 4.5 h; library: site-saturation at positions 5, 18, 19, 20
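Further: peptides expressed intracellularly from a pBAD plasmid library in pooled LB shake-flask culture, induced with 0.3% L-arabinose, DNA abundance read by NGS, three biological replicates, DESeq2 with apeglm shrinkage.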

Sequence | shrunken log2 fold change
RRIRTRPPRLPRPRPRPWTTPRP | 0.176
RRIRTRPPRLPRPRPRPWWRPRP | -0.00919
RRIRTRPPRLPRPRPRPWWWPRP | -0.0964
RRIRTRPPRLPRPRPRPYAKPRP | -0.0117
RRIRTRPPRLPRPRPRPYCGPRP | -0.294
RRIRTRPPRLPRPRPRPYDTPRP | -0.661
RRIRTRPPRLPRPRPRPYEHPRP | -0.0707
RRIRTRPPRLPRPRPRPYEIPRP | -0.453
RRIRTRPPRLPRPRPRPYEPPRP | -0.18
RRIRTRPPRLPRPRPRPYGEPRP | -0.074
RRIRTRPPRLPRPRPRPYGFPRP | -0.315
RRIRTRPPRLPRPRPRPYKKPRP | -0.317
RRIRTRPPRLPRPRPRPYKWPRP | -0.0875
RRIRTRPPRLPRPRPRPYLYPRP | -0.702
RRIRTRPPRLPRPRPRPYSEPRP | -0.212
RRIRTRPPRLPRPRPRPYVNPRP | -0.189
RRIRTRPPRLPRPRPRPYVQPRP | -0.0752
RRIRTRPPRLPRPRPRPYVSPRP | -0.244
RRIRTRPPRLPRPRPRPYWIPRP | -0.0377
RRIRVRPPRLPRPRPRPAATPRP | 0.609
RRIRVRPPRLPRPRPRPACRPRP | -0.132
RRIRVRPPRLPRPRPRPADCPRP | 0.0869
RRIRVRPPRLPRPRPRPADWPRP | 0.379
RRIRVRPPRLPRPRPRPAFTPRP | -0.124
RRIRVRPPRLPRPRPRPAGEPRP | 0.339

Sequence | shrunken log2 fold change
RRIRVRPPRLPRPRPRPAHEPRP | 0.205
RRIRVRPPRLPRPRPRPAHPPRP | 0.0808
RRIRVRPPRLPRPRPRPAHQPRP | 0.317
RRIRVRPPRLPRPRPRPAHRPRP | -0.0183
RRIRVRPPRLPRPRPRPAIRPRP | 0.0362
RRIRVRPPRLPRPRPRPAISPRP | -0.122
RRIRVRPPRLPRPRPRPAMDPRP | 0.21
RRIRVRPPRLPRPRPRPANMPRP | 0.00908
RRIRVRPPRLPRPRPRPAPHPRP | 0.286
RRIRVRPPRLPRPRPRPAPVPRP | 0.349
RRIRVRPPRLPRPRPRPAQMPRP | 0.126
RRIRVRPPRLPRPRPRPAQSPRP | 0.107
RRIRVRPPRLPRPRPRPAQTPRP | 0.442
RRIRVRPPRLPRPRPRPARPPRP | 0.486
RRIRVRPPRLPRPRPRPASHPRP | 0.0857
RRIRVRPPRLPRPRPRPATQPRP | -0.0949
RRIRVRPPRLPRPRPRPAVLPRP | 1.75
RRIRVRPPRLPRPRPRPAWCPRP | 0.211
RRIRVRPPRLPRPRPRPAWKPRP | 0.106
RRIRVRPPRLPRPRPRPAWLPRP | 0.186
RRIRVRPPRLPRPRPRPAYEPRP | 0.0112
RRIRVRPPRLPRPRPRPAYIPRP | -0.738
RRIRVRPPRLPRPRPRPCAMPRP | -0.16
RRIRVRPPRLPRPRPRPCDLPRP | -0.238
RRIRVRPPRLPRPRPRPCDYPRP | -0.845

Sequence | shrunken log2 fold change
RRIRVRPPRLPRPRPRPCEDPRP | -0.0254
RRIRVRPPRLPRPRPRPCERPRP | -0.00992
RRIRVRPPRLPRPRPRPCEYPRP | -0.00327
RRIRVRPPRLPRPRPRPCFIPRP | -0.599
RRIRVRPPRLPRPRPRPCGRPRP | 0.168
RRIRVRPPRLPRPRPRPCGWPRP | 0.302
RRIRVRPPRLPRPRPRPCHDPRP | -0.122
RRIRVRPPRLPRPRPRPCHYPRP | -0.0563
RRIRVRPPRLPRPRPRPCIDPRP | -0.106
RRIRVRPPRLPRPRPRPCKNPRP | -0.0206
RRIRVRPPRLPRPRPRPCMMPRP | -0.33
RRIRVRPPRLPRPRPRPCNMPRP | -0.247
RRIRVRPPRLPRPRPRPCPMPRP | -0.0643
RRIRVRPPRLPRPRPRPCPNPRP | -0.245
RRIRVRPPRLPRPRPRPCQDPRP | -0.336
RRIRVRPPRLPRPRPRPCRYPRP | 0.0933
RRIRVRPPRLPRPRPRPCSIPRP | -0.0267
RRIRVRPPRLPRPRPRPCSKPRP | -0.0775
RRIRVRPPRLPRPRPRPCVWPRP | -0.0237
RRIRVRPPRLPRPRPRPCWNPRP | 0.0501
RRIRVRPPRLPRPRPRPCYLPRP | -0.56
RRIRVRPPRLPRPRPRPDCGPRP | -0.0382
RRIRVRPPRLPRPRPRPDCHPRP | -0.296
RRIRVRPPRLPRPRPRPDCWPRP | 0.135
RRIRVRPPRLPRPRPRPDENPRP | -0.0618
